Measurements from article PMC10085699.

How the values were obtained:
[1] = molecular target: T1, Sen1-HD (UniProt Q00416 1095-1904); experiment: EMSA
T1 sequence: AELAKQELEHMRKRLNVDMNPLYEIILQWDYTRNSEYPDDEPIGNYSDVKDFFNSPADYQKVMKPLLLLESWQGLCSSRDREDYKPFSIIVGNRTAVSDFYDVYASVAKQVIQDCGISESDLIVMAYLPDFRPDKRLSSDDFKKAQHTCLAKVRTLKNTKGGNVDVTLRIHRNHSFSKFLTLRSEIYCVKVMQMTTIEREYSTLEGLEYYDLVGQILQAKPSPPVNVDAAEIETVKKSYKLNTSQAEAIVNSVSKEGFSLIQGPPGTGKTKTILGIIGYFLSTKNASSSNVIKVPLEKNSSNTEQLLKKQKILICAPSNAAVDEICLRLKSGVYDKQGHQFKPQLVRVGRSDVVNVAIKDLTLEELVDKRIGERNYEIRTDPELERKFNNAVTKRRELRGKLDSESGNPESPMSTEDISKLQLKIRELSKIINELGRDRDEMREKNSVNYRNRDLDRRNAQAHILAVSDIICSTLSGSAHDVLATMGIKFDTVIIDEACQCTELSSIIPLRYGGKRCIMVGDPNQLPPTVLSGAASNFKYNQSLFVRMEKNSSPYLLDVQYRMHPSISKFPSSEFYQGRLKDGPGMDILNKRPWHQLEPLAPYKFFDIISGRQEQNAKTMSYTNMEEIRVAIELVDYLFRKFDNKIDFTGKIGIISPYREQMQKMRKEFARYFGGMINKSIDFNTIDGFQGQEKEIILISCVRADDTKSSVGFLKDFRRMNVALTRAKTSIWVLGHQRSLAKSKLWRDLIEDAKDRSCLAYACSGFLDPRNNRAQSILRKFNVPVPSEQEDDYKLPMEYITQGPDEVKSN

[2] = molecular target: T2, SETX-HD-DE/AA (Homo sapiens, UniProt Q7Z333 1674-2677, D2181A;E2182A); experiment: EMSA
T2 sequence: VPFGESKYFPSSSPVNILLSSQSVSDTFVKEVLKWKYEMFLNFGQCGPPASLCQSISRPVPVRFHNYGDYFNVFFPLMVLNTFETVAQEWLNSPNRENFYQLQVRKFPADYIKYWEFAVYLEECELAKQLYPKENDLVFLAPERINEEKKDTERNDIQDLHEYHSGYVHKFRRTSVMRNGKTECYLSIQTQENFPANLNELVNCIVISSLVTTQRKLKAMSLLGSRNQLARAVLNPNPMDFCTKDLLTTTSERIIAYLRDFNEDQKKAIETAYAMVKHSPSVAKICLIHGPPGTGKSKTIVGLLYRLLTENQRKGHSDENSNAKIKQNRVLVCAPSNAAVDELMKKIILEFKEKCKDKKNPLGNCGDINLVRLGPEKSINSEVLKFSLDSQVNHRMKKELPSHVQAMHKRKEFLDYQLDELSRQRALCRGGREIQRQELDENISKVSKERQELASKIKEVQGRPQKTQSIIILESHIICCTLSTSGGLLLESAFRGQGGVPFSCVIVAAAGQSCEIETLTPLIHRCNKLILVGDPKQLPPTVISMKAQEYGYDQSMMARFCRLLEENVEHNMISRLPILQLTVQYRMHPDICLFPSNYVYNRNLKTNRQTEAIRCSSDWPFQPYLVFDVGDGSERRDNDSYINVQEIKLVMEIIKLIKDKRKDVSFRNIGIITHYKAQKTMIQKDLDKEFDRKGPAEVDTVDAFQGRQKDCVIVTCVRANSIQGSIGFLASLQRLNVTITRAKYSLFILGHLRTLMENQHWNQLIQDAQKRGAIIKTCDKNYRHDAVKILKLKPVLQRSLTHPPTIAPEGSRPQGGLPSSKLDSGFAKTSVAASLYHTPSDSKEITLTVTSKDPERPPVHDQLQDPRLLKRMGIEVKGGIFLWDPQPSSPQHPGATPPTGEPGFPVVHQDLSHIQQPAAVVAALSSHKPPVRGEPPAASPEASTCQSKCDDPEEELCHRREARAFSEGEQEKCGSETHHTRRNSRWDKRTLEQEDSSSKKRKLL

B1: ssRNA pRMS678 (61 nt) (ssRNA)
RNA: UUGUCUUCUCAUAAAUUUAAUCCCCGUACGCUUAUACUCCUUUAACUACCCAGUCUUCCCG
Question: Does B1 bind [1]?
Answer: Result: binds

Question: Does B1 bind [2]?
Answer: Result: binds
